Reference: the RNAGym collection of RNA variant scans (doi:10.1073/pnas.2313332121)

B1: TPR t1 (parent)
chain: GACCAAUCUGCCCUCAGAGCUCGAGAACAUCUUCGGAUGCAGAGGAGGCAGGCUUCGGUGGCGCGAUAGCGCCAACGUCCUCAACCUCCAAUGCAUCCCACCACAUGAUGAUGCCUGAAGAGCCUUGGUUUUUUG

Variants of: B1
Assay: polymerase ribozyme fitness, log enrichment relative to wild type (log ratio); higher = more active; in vitro selection for triplet polymerase activity
In short: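 Libraries of mutants in each subunit of a heterodimeric triplet polymerase ribozyme were generated by PCR and transcribed. In triplicate, each went through one in vitro selection round: annealing with biotinylated primer, partner subunit and triplets; frozen incubation at −7 °C; gel excision of extended constructs; streptavidin-bead capture; RT-PCR. Fitness, taken from Illumina sequencing of input and output libraries, is the logarithm of a genotype's enrichment over wild-type enrichment, averaged across replicates with inverse-variance weights. The logarithm is base 2, and genotypes needed ≥10 input reads and ≥1 read per output to be kept.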
In the case of GACCAAUCUGCCCUCAGAGCUCGAGAACAUCUUCGGAUGUAGAGGAGGCAGCCUUCGGUGGCGCGAUAGCGCCAACGUCCUCAACCUCCAAUGCAUCCCACCACAUGAUGAUGCCUCAAGAGCCUUGGUUUUUUG [C40U G52C G117C], the “polymerase ribozyme fitness (log ratio)” value is reported as -6.09.
With GACCAAUCUGCCCUCAGAGCUCGAGAACAUCUUCGGAUGUAGAGGAGGCAAGCUUCGGUUGCGCGAUAGCGCCAACGUCCUGAACCUCCAAUGCAACCCACCACAUGAUGAUGCCGGAAGAGCCUUGGUUUUUUG [C40U G51A G60U C82G U96A U116G] the “polymerase ribozyme fitness (log ratio)” value was -6.02.
In the case of GACCAAUCUGCCCUCAGAGCUCGAGAACAUCUUCGGAUGUAGAGGAGGCAGGCUUCGGUGGCGCGAUAGCGCCAACGUCCUCAACCUCCAAUGCAUCACACCACAUGAUGAUGCCUGAAGAGCCUUGGUUUUUUG [C40U C98A], the “polymerase ribozyme fitness (log ratio)” value is reported as -5.
In the case of GACCAAUCUGCCCUCAGAGCUCGAGAACAUCUUCGGAUGUAGAGGAGGCAGGCUUCGGUGGCGCGAUAGCGACAACGUCCUCAACCUCCAAUGCAUCCCACCACAUGAUGAUGCCUGAAGAGCCUUGGUUUUUUG [C40U C72A], the “polymerase ribozyme fitness (log ratio)” value is reported as -0.504.
With GACCAAUCUGCCCUCAGAGCUCGAGAACAUCUUCGGAUGUAGAGGAGGCAGGCUUCGGUGGCGCGAUAGCGUCAACGUCCUCAACCUCCAAUGCAUCCCACCACAUGAUGAUGCCUGAAGAGCCUUGGUUUUUUG [C40U C72U] the “polymerase ribozyme fitness (log ratio)” value was -1.69.
In the case of GACCAAUCUGCCCUCAGAGCUCGAGAACAUCUUCGGAUGUAGAGGAGGCAGGCUUCGGUGGCGCGAUAGCGCCAACGUCCUCAACCUACAAUGCAUCCCACCACAUGAUGAUGCCUGAAGAGCCUUGGUUUUUUG [C40U C88A], the “polymerase ribozyme fitness (log ratio)” value is reported as -0.911.
For GACCAAUCUGCCCUCAGAGCUCGAGAACAUCUUCGGAUGUAGAGGAGGCAGGCUUCGGUGGCGCGAUAGCGCAAACGUCCUCAACCUCCAAUGCAUCCCACCACAUGAUGAUGCCUGAAGAGCCUUGGUUUUUUG [C40U C73A], the “polymerase ribozyme fitness (log ratio)” value was -0.621.
For GACCAAUCUGCCCUCAGAGCUCGAGAACAUCUUCGGAUGUAGAGGAGGGAGGCUUCGGAGGCGCGAUAGCGCCAACGUCCUCAACCUCCAAUGCAUCCCACCACAUGAUGAUGCCUGAAGAGCCUUGGUUUUUUG [C40U C49G U59A], the “polymerase ribozyme fitness (log ratio)” value was -1.73.
With GACCAAUCUGCCCUCAGAGCUCGAGAACAUCUUCGGAUGUAGAGGAGGCAGGCUUCGGUGGCGCGAUAGCGCCAACGUCCUCAACCUCCAAUGCUUCCCACCACAUGAUGAUGCCUCAAGCGCCUUGGUUUUUUG [C40U A95U G117C A121C] the “polymerase ribozyme fitness (log ratio)” value was -5.49.
With GACCAAUCUGCCCUCAGAGCUCGAGAACAUCUUCGGAUGUAGAGGAGGCAGGCUUCGGUGGCGUGAUAGCGCCAACGUCCUCAACCUCCCAUGCAUCCCACCACAUGAUGAUGCCUGAAGAGCCUUGGUUUUUUG [C40U C64U A90C] the “polymerase ribozyme fitness (log ratio)” value was -1.97.
For GACCAAUCUGCCCUCAGAGCUCGAGAACAUCUUCGGAUGUAGAGGAGGCAGGCUUCGGUGGCGCGAUAGAGCCAACGUCCUCAACCUCCAAUGCAUCCCACCACAUGAUGAUGCCUGAAGAGCCUUGAUUUUUUG [C40U C70A G128A], the “polymerase ribozyme fitness (log ratio)” value was -4.95.
For GACCAAUCUGCCCUCAGAGCUCGAGAACAUCUUCGGAUGUAGAGGAGGCAGGCUUCGGUGGCGCGAUAGCGCCAACGUCCUCAACCUCCAAUGCAUCCCACCAAAUGAUGAUGCCUGUAGAGCCUUGGUUUUUUG [C40U C104A A118U], the “polymerase ribozyme fitness (log ratio)” value was -1.26.
With GACCAAUCUGCCCUCAGAGCUCGAGAACAUCUUCGGAUGUAGAGGAGGCAGUCUUCGGUGGCGCGAUAGCGCCAACGUCCUCAACCUACAAUGCAUCCCACCACAUGAUGAUGCCUGAAGAGCCUUGGUUUUUUG [C40U G52U C88A] the “polymerase ribozyme fitness (log ratio)” value was -1.07.
In the case of GACCAAUCUGCCCUCAGAGCUCGAGAACAUCUUCGGAUGUAGAGGAGGCAGGCUUCGGUGGCGCGAUAGCGCCAACGUCCUCAACCUCCAAUGCAUUCCACCACAAGAUGAUGCAUGAAGAGCCUUGGUUUUUUG [C40U C97U U106A C115A], the “polymerase ribozyme fitness (log ratio)” value is reported as -1.86.
With GACCAAUCUGCCCUCAGAGCUCGAGAACAUCUUCGGAUGUAGCGGAGGCAGGCUUCGGUGGCGCGAUAGCGCCAACGUCCUCAACCUCCAAUCCAUCCCACCACAUGAUGAUGCAUGAAGAGCCUUGGUUUUUUG [C40U A43C G93C C115A] the “polymerase ribozyme fitness (log ratio)” value was -2.74.
For GACCAAUCUGCCCUCAGAGCUCGAGAACAUCUUCGGAUGUAGAUGAGGUAGGAUUCGGUGGCGCGAUAGCGCCAACGUCCUCACCGUCCAAUGCAUCCCACCACAUGAUGAUCCCUGAAGAGCCCUGGUUUUUUG [C40U G44U C49U C53A A84C C86G G113C U125C], the “polymerase ribozyme fitness (log ratio)” value was -3.99.
In the case of GACCAAUCUGCCCUCAGAGCUCGAGAACAUCUUCGGAUGUAGAGUAGGCAGGCUUCGGUGGCGCGAUAGCGCCAACGUCCUCAACCUCCAAUGCAUCCCACCACAUGAUGAUGCCUGAAGAGCCUUCGUUUUUUG [C40U G45U G127C], the “polymerase ribozyme fitness (log ratio)” value is reported as -3.96.
With GACCAAUCUGCCCUCAGAGCUCGAGAACAUCUUCGGAUGUAGAGGAGGCAUGUUUCGGUGUCGCGAUAGCGCCAACGUCCUCAACCUCCAAUGCAUCCCACCACAUGAUGAUUCCUGAAGAGCCUUGGUUUUUUG [C40U G51U C53U G61U G113U] the “polymerase ribozyme fitness (log ratio)” value was -6.53.
With GACCAAUCUGCCCUCAGAGCUCGAGAACAUCUUCGGAUGUAGAGGAGGCAGGCUUCGGUGGCGCGAUAGCGCUACCGUCCUCAACCUCCAAUGCAUCCCACCACAUGAUGAUGCCUGAAGAGCCUUGGUUUUUUG [C40U C73U A75C] the “polymerase ribozyme fitness (log ratio)” value was -0.514.
In the case of GACCAAUCUGCCCUCAGAGCUCGAGAACAUCUUCGGAUGUAGAGGAAGCAGGCUUCGGUGGCGCGAUAGCGCCAACGUCCUCAACCUCCAAUGCAUCCCACCACAUGAUGAUGCCUGAAGAGCCUUGGUUUUUUG [C40U G47A], the “polymerase ribozyme fitness (log ratio)” value is reported as -2.33.
With GACCAAUCUGCCCUCAGAGCUCGAGAACAUCUUCGGAUGUAGAGGAGGCAGGCUUCGGUGGCGCGAUAGCGCCAACGUCCUCAACCUCCAAUGCAUCCCACCACAUGAUGAUGCCUGAAGAGACUUGGUUUUUUG [C40U C123A] the “polymerase ribozyme fitness (log ratio)” value was 0.43.
